For the data set, the system named is T1, CC(C)CCC[C@@H](C)[C@H]1CC[C@H]2[C@@H]3CC=C4C[C@@H](O)CC[C@]4(C)[C@H]3CC[C@]12C.
T1 construct: Met-Ala (from the NcoI cloning site) in front of Arg25 (N); made in house; host or cells: E. coli TOPP3 carrying pJL/H7α1.5 (ATCC 69401)
As to the kind of experiment: Reconstitution assay of cholesterol 7α-hydroxylase activity at different concentrations of cholesterol (Lineweaver-Burke plot). Format: biochemical, human. The conditions noted are these: other: purified truncated enzyme reconstituted with NADPH-cytochrome P450 reductase and phospholipid, 1 mM NADPH, 37° C., 20 minutes, pH 7.4. Here is the method:
FIG. 10 illustrates a Lineweaver-Burke plot of activities of truncated human and truncated rat cholesterol 7α-hydroxylase in E. coli. Truncated CYP7 activity was measured using a reconstitution assay, such as that described in Example 10, at different concentrations of cholesterol, as indicated. Linear regression was used to draw the line.
The truncated enzyme was purified from recombinant bacteria. Purification methodology is described by Li and Chiang, J. Biol. Chem. 266 (29): 19186 (1991), the contents of which are expressly incorporated by reference herein in its entirety. The activity of CYP7, in both the presence and absence of the compound, is measured as described by Chiang, Meth. Enzym. 206: 483 (1991), the contents of which is expressly incorporated by reference herein in its entirety. […]
The Km and Vmax for cholesterol have been determined in comparison with the truncated, bacterially expressed rat CYP7 enzyme (FIG. 10). […]

What is called Km is the concentration of substrate that gives half-maximal velocity. The Vmax is the top rate of the reaction or transport when substrate is in excess.

For the substance “truncated human cholesterol 7α-hydroxylase (CYP7), amino acids 1 to 24 of the membrane anchor region deleted, SEQ ID NO:5, expressed in E. coli TOPP3-pJL/H7α1.5 (Homo sapiens)”, the Km came out at 5.85 µM and the Vmax is recorded as 0.13 nmol/min.

These data come from US5677159A, “Genomic DNA of human cholesterol 7α-hydroxylase and methods for using it” (Northeastern Ohio University, priority 1995, dated 1997).
